Results as given in patent US12331106B2, “Anti-angiopoietin-2 antibodies that induce Tie2 activation” (Institute for Basic Science, priority 2018, dated 2025).

Assays:
[1] = test system: downstream signaling of the Tie2 receptor (Akt phosphorylation) in HUVECs; test: Akt phosphorylation in HUVECs by humanized anti-Ang2 antibodies (immunoblot); format: cell-based, human; conditions: hAng2 1 μg/ml, 30 min, antibody 0.5 μg/ml, maintained until 50 μg/ml
Procedure: To investigate whether the humanized anti-Ang2 antibodies induce the downstream signaling of the Tie2 receptor in endothelial cells, HUVECs (LONZA™) were treated with human Ang2 protein together with humanized anti-Ang2 antibody. Then, the level of Akt phosphorylation, the main downstream signaling protein of Tie2 receptor was measured by immunoblotting. To compare the degree of Akt activation, cells were treated with full-length hAng2 (R&D® Systems) alone or antibody alone in the experiment.
Specifically, HUVEC cells (1×10^5 cells/ml) were cultured in EGM-2 (LONZA™) at 37° C. in 60 mm culture dish. Cells of 90% confluency were incubated with EBM-2 (LONZA™) for 4 hrs. The serum-starved HUVECs were treated with the mixture of anti-Ang2 antibody and hAng2 protein (1 μg/ml, R&D® Systems), and further incubated for 30 min. The cells were washed with cold PBS, treated with lysis buffer, and lysed at 4° C. for 20 min. Then, the cell lysates were prepared by centrifugation at 13000 rpm for 15 min. 5× SDS sample buffer was added to the cell lysate and the mixture was boiled at 95° C. for 5 min. Then, the mixture was subjected to SDS-PAGE and subsequent Western blotting.
To investigate the phosphorylation of Akt, the membrane was blocked with 5% skim milk-containing TBST for 1 hr at RT, and incubated with anti-phospho-Akt antibody (S473) at 4° C. for about 8 hrs. […]

[2] = test system: tumor vessels of LLC tumor; test: Tumor vessel normalization (CD31, PDGFRβ immunofluorescence) in LLC tumors; format: in vivo, C57BL/6 mice; conditions: compared with Fc or Fc+Cpt
Source text: In order to investigate the changes in tumor vessels by 2C811 antibody, we obtained frozen sections of tumor samples and performed immunofluorescence analyses by staining with a blood vessel-specific marker, CD31, and pericyte-specific marker, PDGFRβ. In detail, the tumor samples were harvested from the mice from the experiment described in Example 8, which were fixed in 4% paraformaldehyde (PFA, Merck), dehydrated in 30% sucrose (Junsei), embedded in OCT compound (Leica), and sectioned using a cryostat (Leica). The resulting frozen sections were blocked for 1 hr using a Protein Blocking Buffer (DAKO). Then the sections were stained with hamster anti-CD31 antibody (1:200, Millipore®) and rat anti-PDGFRB antibody (1:200, eBioscience™) in PBS at 4° C. for 8 hrs. After washing 3 times with PBS, the sections were stained with ALEXA FLUOR® 488-conjugated anti-hamster IgG antibody and Alexa ALEXA FLUOR® 594-conjugated anti-rat IgG antibody (1:1000, Jackson Immunoresearch) in PBS for 1 hr at room temperature. After another 3 washes with PBS, the sections were mounted in fluorescence mounting medium (DAKO) using a coverslip (Marienfeld). The stained sections were imaged using LSM880 confocal microscope (Zeiss). […]

[3] = test system: Tie2 receptor clustering / FOXO1 translocation in HUVECs; test: Tie2 clustering and FOXO1 translocation in HUVECs (immunofluorescence); format: cell-based, human
Procedure: Tie2 clustering at cell-cell junction area and FOXO1 translocation from nucleus to cytosol by anti-Ang2 antibodies were examined in HUVECs by immunofluorescence. Specifically, HUVECs were seeded on 8 well slide chamber (Lab-Tek™ II) and maintained in EGM-2 medium for 2-3 days. At 100% confluence, the cells were serum starved with EBM-2 medium for 4 hrs and then treated with 1 μg/ml anti-Ang2 antibodies together with 1 μg/ml of hAng2 for 30 min. Thereafter, the cells were fixed with 4% formaldehyde in PBS at room temperature (RT) for 10 min, permeabilized with 0.1% TRITON™ X-100 (non-ionic polyoxyethylene surfactant) in PBS, blocked with 1% BSA in PBS at RT for 60 min, and incubated with primary antibodies at RT for 1 hr. The primary antibodies for hTie2, FOXO1, and Human Fc were used. The cells were then incubated with secondary antibodies (Invitrogen) in the dark at RT for 1 hr and mounted with VECTASHIELD® mounting medium with DAPI (Vector Labs, antifade mounting media optimized for immunofluorescence applications). Images were taken with a laser scanning confocal microscope (LSM880, Carl Zeiss).
2C8H11-induced Tie2 clustering and FOXO1 translocation was examined in a time-course study (from 10 min to 240 min). […] 6-4: Inhibition of Vascular Permeability by Humanized Anti-Ang2 Antibodies

Akt phosphorylation [1]: increased markedly | FOXO1 translocation from nucleus to cytosol ([3]; HUVECs, 30 min, compared to serum-starved control): markedly disappeared in nucleus
B1: 2C8H11: humanized anti-Ang2 human IgG1 antibody from mouse 2C8; VH SEQ ID NO: 55, VL SEQ ID NO: 56 (antibody, V domains shown)
VH: QVQLVQSGAEVKKPGASVKVSCKASGYTFTSYWMHWVRQAPGQGLEWMGMIDPSDSETRLNQKFKDRVTMTRDTSTSTVYMELSSLRSEDTAVYYCARRFYYGSDWYFDVWGQGTLVTVSS
VL: DIQLTQSPSFLSASVGDRVTITCKASQDVGTAVAWYQQKPGKAPKLLIYWASTRHTGVPSRFSGSGSGTEFTLTISSLQPEDFATYYCQQYSSYPLTFGQGTKVEIK
modifications: human IgG1 constant regions; VH; VL
PDGFRβ+ pericyte coverage increase [2]: 2.4 fold | tumor blood vessel (BV) density reduction [2]: 56% | co-localization of antibody with Tie2 receptor ([3]; HUVECs, 30 min, anti-human Fc staining): co-localized with clustered Tie2 receptor at cell-cell contact and endocytosed Tie2 receptor in cytosol | Tie2 translocation/clustering to cell-cell contact ([3]; HUVECs, 30 min, antibodies 1 μg/ml with hAng2 1 μg/ml): induced Tie2 translocation/clustering to cell-cell contact | Tie2 receptor / Tie2 clustering at cell-cell contact at late time points ([3]; time-course, with hAng2, 120 min and 240 min): sustained even after 240 min treatment | co-localized antibody with Tie2 at cell-cell contact ([3]; time-course, with hAng2, up to 240 min): maintained until 240 min
